Among the data in publication PMC8445900 are Kd and dH values, retold here.

As a reminder, the Kd is the concentration at which binding is half-saturated. A lower Kd goes with higher affinity.

Holding throughout (test): ITC
(ITC needs no label: the signal is the heat of the interaction.)

Assay [1] concerns the target SARS-CoV-2 spike protein receptor-binding domain K417N (SARS-CoV-2) (UniProt P0DTC2).
Assay [2] addresses SARS-CoV-2 spike protein receptor-binding domain S477N (SARS-CoV-2) (UniProt P0DTC2).
The target in assay [3] is SARS-CoV-2 spike protein receptor-binding domain S494P (SARS-CoV-2) (UniProt P0DTC2).
Assay [4] concerns the target SARS-CoV-2 spike protein receptor-binding domain T478I (SARS-CoV-2) (UniProt P0DTC2).
Assay [5] has as its target SARS-CoV-2 spike protein receptor-binding domain Y453F (SARS-CoV-2) (UniProt P0DTC2).

As to “CC12.1 single-chain fragment variable (scFv)”, the dissociation constant Kd in assay [1] came out at 119 nM; in assay [2], 25.6 nM; in assay [3], 23 nM; in assay [4] it was 5.8 nM; in assay [5], 827 nM. The dH in assay [1] is -1.8 kcal/mol; in assay [2], -5.7 kcal/mol; in assay [3], -6.4 kcal/mol; in assay [4], -5.6 kcal/mol; in assay [5], -2.2 kcal/mol.
